Laboratory results: patent EP4786492A1
“And” between values parts separate entries of the source, which are not always exact repeats. Identical values can stand only once. One block for each binder: values may come before it.

Tests used:
[1] = target: human delta-like ligand 3 (DLL3) on SHP77 cells (human) (UniProt Q9NYJ7); test: FACS on SHP77 cells
[2] = target: human DLL1 protein (human) (UniProt O00548); test: ELISA, maximum over 0.1-100 nM
[3] = target: human DLL4 protein (human) (UniProt Q9NR61); test: ELISA, maximum over 0.1-100 nM
[4] = target: DLL3 endogenously expressed on NCI-H82 cells (UniProt Q9NYJ7); test: FACS on NCI-H82 cells; antibody 4 nM
[5] = target: DLL3 endogenously expressed on NCI-H82 cells (UniProt Q9NYJ7); test: FACS on NCI-H82 cells; antibody 20 nM
[6] = target: DLL3 endogenously expressed on NCI-H82 cells (UniProt Q9NYJ7); test: FACS on NCI-H82 cells; antibody 0.8 nM
[7] = target: DLL3 endogenously expressed on NCI-H82 cells (UniProt Q9NYJ7); test: FACS on NCI-H82 cells; antibody 100 nM
[8] = target: DLL3 endogenously expressed on NCI-H82 cells (UniProt Q9NYJ7); test: FACS on NCI-H82 cells; antibody 0.16 nM
[9] = target: human DLL3 protein expressed on CHO-K1 recombinant cells (human DLL3 extracellular segment fused to EpCAM transmembrane and intracellular regions) (human) (UniProt Q9NYJ7); test: FACS, CHO-K1 hDLL3 cells, 4 nM antibody
[10] = target: DLL3 endogenously expressed on NCI-H82 cells (UniProt Q9NYJ7); test: FACS on NCI-H82 cells; antibody 0.032 nM
[11] = target: human DLL3 protein expressed on CHO-K1 recombinant cells (human DLL3 extracellular segment fused to EpCAM transmembrane and intracellular regions) (human) (UniProt Q9NYJ7); test: FACS, CHO-K1 hDLL3 cells, 20 nM antibody
[12] = target: DLL3 endogenously expressed on NCI-H82 cells (UniProt Q9NYJ7); test: FACS on NCI-H82 cells; antibody 0.0064 nM
[13] = target: human DLL3 protein expressed on CHO-K1 recombinant cells (human DLL3 extracellular segment fused to EpCAM transmembrane and intracellular regions) (human) (UniProt Q9NYJ7); test: FACS, CHO-K1 hDLL3 cells, 0.8 nM antibody
[14] = target: human DLL3 protein expressed on CHO-K1 recombinant cells (human DLL3 extracellular segment fused to EpCAM transmembrane and intracellular regions) (human) (UniProt Q9NYJ7); test: FACS, CHO-K1 hDLL3 cells, 100 nM antibody
[15] = target: DLL3 endogenously expressed on NCI-H82 cells (UniProt Q9NYJ7); test: FACS on NCI-H82 cells; antibody 0.00128 nM
[16] = target: human DLL3 protein expressed on CHO-K1 recombinant cells (human DLL3 extracellular segment fused to EpCAM transmembrane and intracellular regions) (human) (UniProt Q9NYJ7); test: FACS, CHO-K1 hDLL3 cells, 0.16 nM antibody
[17] = target: human DLL3 protein expressed on CHO-K1 recombinant cells (human DLL3 extracellular segment fused to EpCAM transmembrane and intracellular regions) (human) (UniProt Q9NYJ7); test: FACS, CHO-K1 hDLL3 cells, 0.032 nM antibody
[18] = target: human DLL3 protein expressed on CHO-K1 recombinant cells (human DLL3 extracellular segment fused to EpCAM transmembrane and intracellular regions) (human) (UniProt Q9NYJ7); test: FACS, CHO-K1 hDLL3 cells, 0.0064 nM antibody
[19] = target: human DLL3 protein expressed on CHO-K1 recombinant cells (human DLL3 extracellular segment fused to EpCAM transmembrane and intracellular regions) (human) (UniProt Q9NYJ7); test: FACS, CHO-K1 hDLL3 cells, 0.00128 nM antibody
[20] = target: human DLL1 protein (Acro, Cat. No. DL1-H52H8) (human) (UniProt O00548); test: ELISA, coated hDLL1; maximum over 0.1, 1, 10, 100 nM antibody
[21] = target: human DLL4 protein (Acro, Cat. No. DL4-H5227) (human) (UniProt Q9NR61); test: ELISA, coated hDLL4; maximum over 0.1, 1, 10, 100 nM antibody
[22] = target: human DLL3 endogenously expressed on SHP77 and NCI-H82 cells (human) (UniProt Q9NYJ7); test: FACS SHP77 cells, 4 nM
[23] = target: human DLL3 endogenously expressed on SHP77 and NCI-H82 cells (human) (UniProt Q9NYJ7); test: FACS SHP77 cells, 20 nM
[24] = target: human DLL3 endogenously expressed on SHP77 and NCI-H82 cells (human) (UniProt Q9NYJ7); test: FACS SHP77 cells, 0.8 nM
[25] = target: human DLL3 endogenously expressed on SHP77 and NCI-H82 cells (human) (UniProt Q9NYJ7); test: FACS SHP77 cells, 100 nM
[26] = target: human DLL3 endogenously expressed on SHP77 and NCI-H82 cells (human) (UniProt Q9NYJ7); test: FACS SHP77 cells, 0.16 nM
[27] = target: human DLL3 endogenously expressed on SHP77 and NCI-H82 cells (human) (UniProt Q9NYJ7); test: FACS SHP77 cells, 0.032 nM
[28] = target: human DLL3 endogenously expressed on SHP77 and NCI-H82 cells (human) (UniProt Q9NYJ7); test: FACS SHP77 cells, 0.0064 nM
[29] = target: human DLL3 endogenously expressed on SHP77 and NCI-H82 cells (human) (UniProt Q9NYJ7); test: FACS SHP77 cells, 0.00128 nM
[30] = target: monkey DLL3 on CHO K1-cyno DLL3 cells (cynomolgus monkey DLL3 extracellular segment joined to EpCAM transmembrane and intracellular regions) (cynomolgus monkey); test: FACS, CHO K1-cyno DLL3 cells, 4 nM antibody
[31] = target: monkey DLL3 on CHO K1-cyno DLL3 cells (cynomolgus monkey DLL3 extracellular segment joined to EpCAM transmembrane and intracellular regions) (cynomolgus monkey); test: FACS, CHO K1-cyno DLL3 cells, 20 nM antibody
[32] = target: monkey DLL3 on CHO K1-cyno DLL3 cells (cynomolgus monkey DLL3 extracellular segment joined to EpCAM transmembrane and intracellular regions) (cynomolgus monkey); test: FACS, CHO K1-cyno DLL3 cells, 0.8 nM antibody
[33] = target: monkey DLL3 on CHO K1-cyno DLL3 cells (cynomolgus monkey DLL3 extracellular segment joined to EpCAM transmembrane and intracellular regions) (cynomolgus monkey); test: FACS, CHO K1-cyno DLL3 cells, 100 nM antibody
[34] = target: monkey DLL3 on CHO K1-cyno DLL3 cells (cynomolgus monkey DLL3 extracellular segment joined to EpCAM transmembrane and intracellular regions) (cynomolgus monkey); test: FACS, CHO K1-cyno DLL3 cells, 0.16 nM antibody
[35] = target: monkey DLL3 on CHO K1-cyno DLL3 cells (cynomolgus monkey DLL3 extracellular segment joined to EpCAM transmembrane and intracellular regions) (cynomolgus monkey); test: FACS, CHO K1-cyno DLL3 cells, 0.032 nM antibody
[36] = target: monkey DLL3 on CHO K1-cyno DLL3 cells (cynomolgus monkey DLL3 extracellular segment joined to EpCAM transmembrane and intracellular regions) (cynomolgus monkey); test: FACS, CHO K1-cyno DLL3 cells, 0.0064 nM antibody
[37] = target: monkey DLL3 on CHO K1-cyno DLL3 cells (cynomolgus monkey DLL3 extracellular segment joined to EpCAM transmembrane and intracellular regions) (cynomolgus monkey); test: FACS, CHO K1-cyno DLL3 cells, 0.00128 nM antibody

Sequence of DLL3 endogenously expressed on NCI-H82 cells (Q9NYJ7 27-618): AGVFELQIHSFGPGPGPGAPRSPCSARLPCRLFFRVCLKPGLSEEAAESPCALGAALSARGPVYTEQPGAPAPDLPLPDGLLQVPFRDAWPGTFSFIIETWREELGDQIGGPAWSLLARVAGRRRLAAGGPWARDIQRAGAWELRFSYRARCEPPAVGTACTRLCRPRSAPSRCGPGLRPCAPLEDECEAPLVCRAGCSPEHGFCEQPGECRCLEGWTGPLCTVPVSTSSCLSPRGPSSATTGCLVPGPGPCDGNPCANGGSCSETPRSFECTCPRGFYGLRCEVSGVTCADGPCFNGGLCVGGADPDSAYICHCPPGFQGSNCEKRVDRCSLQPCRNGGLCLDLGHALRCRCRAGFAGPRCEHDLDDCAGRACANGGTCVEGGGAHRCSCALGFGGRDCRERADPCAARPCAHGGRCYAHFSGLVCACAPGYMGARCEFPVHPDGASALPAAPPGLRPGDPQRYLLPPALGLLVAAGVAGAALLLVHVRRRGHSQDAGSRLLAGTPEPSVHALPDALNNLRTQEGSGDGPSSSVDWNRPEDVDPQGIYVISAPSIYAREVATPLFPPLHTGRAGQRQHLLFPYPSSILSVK
Sequence of human DLL3 endogenously expressed on SHP77 and NCI-H82 cells (human) (Q9NYJ7 27-618): as above
Sequence of human delta-like ligand 3 (DLL3) on SHP77 cells (human) (Q9NYJ7 27-618, stated change not applied): as the sequence (Q9NYJ7 27-618) above
Sequence of human DLL3 protein expressed on CHO-K1 recombinant cells (human DLL3 extracellular segment fused to EpCAM transmembrane and intracellular regions) (human) (Q9NYJ7 other isoform, or with tags, fused parts or gaps limits assumed): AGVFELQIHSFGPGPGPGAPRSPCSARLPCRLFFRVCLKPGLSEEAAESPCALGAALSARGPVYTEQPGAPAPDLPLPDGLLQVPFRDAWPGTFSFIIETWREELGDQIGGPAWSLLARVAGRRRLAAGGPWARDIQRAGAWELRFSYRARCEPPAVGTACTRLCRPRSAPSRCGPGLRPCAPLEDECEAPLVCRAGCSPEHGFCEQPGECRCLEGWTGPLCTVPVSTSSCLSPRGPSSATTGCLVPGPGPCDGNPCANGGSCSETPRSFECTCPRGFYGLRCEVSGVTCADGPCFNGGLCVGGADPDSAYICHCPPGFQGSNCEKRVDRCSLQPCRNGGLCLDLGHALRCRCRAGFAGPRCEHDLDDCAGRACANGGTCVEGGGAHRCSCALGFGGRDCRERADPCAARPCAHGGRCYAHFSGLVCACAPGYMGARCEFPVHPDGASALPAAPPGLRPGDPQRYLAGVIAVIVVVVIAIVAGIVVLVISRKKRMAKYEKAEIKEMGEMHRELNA
Sequence of human DLL1 protein (human) (O00548 18-540 limits assumed): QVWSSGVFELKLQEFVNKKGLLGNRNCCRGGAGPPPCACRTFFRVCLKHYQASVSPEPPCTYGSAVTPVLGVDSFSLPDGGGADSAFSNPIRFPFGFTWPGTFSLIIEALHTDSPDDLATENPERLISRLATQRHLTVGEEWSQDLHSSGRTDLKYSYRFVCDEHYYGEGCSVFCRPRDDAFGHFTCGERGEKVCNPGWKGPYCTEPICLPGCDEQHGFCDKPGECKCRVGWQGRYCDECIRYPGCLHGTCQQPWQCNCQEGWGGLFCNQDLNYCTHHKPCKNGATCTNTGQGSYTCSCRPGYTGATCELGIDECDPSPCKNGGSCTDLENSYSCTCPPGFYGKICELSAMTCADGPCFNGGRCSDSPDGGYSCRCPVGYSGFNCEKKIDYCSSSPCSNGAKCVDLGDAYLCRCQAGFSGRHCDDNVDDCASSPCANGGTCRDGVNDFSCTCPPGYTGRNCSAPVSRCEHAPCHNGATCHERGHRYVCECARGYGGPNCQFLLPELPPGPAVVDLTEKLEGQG
Sequence of monkey DLL3 on CHO K1-cyno DLL3 cells (cynomolgus monkey DLL3 extracellular segment joined to EpCAM transmembrane and intracellular regions) (cynomolgus monkey) (chain, as listed by the source limits assumed): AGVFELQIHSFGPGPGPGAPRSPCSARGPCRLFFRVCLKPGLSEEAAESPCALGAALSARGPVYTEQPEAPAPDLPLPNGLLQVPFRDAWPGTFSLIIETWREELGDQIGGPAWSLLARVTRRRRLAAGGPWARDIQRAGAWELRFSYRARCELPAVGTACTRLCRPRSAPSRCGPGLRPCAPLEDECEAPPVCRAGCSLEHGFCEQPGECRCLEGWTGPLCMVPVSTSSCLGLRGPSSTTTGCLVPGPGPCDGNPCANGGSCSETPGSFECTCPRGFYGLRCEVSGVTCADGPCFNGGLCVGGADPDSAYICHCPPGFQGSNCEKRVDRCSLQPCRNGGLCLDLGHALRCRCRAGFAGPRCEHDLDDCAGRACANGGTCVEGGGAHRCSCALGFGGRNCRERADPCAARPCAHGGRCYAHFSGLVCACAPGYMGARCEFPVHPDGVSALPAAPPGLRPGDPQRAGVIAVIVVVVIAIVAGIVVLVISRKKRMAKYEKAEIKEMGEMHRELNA
Sequence of human DLL4 protein (human) (Q9NR61 27-524 limits assumed): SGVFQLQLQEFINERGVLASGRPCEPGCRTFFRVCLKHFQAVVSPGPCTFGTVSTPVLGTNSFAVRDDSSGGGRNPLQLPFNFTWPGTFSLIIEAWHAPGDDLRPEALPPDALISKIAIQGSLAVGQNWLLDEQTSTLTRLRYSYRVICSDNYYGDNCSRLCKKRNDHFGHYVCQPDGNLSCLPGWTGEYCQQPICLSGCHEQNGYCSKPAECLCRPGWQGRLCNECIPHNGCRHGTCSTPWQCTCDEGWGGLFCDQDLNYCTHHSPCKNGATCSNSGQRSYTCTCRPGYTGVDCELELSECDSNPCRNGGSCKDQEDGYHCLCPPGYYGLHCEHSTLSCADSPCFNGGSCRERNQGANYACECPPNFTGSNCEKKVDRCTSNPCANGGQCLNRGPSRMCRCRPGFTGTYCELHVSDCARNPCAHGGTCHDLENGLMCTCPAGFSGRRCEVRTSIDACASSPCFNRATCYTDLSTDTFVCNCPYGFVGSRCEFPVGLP
Sequence of human DLL1 protein (Acro, Cat. No. DL1-H52H8) (human) (O00548 18-540 limits assumed): as the sequence (O00548 18-540 limits assumed) above
Sequence of human DLL4 protein (Acro, Cat. No. DL4-H5227) (human) (Q9NR61 27-524 limits assumed): as the sequence (Q9NR61 27-524 limits assumed) above

- MFI at 0.00128 nM [1]: 101 MFI
- MFI at 0.0064 nM [1]: 105 MFI
- MFI at 0.032 nM [1]: 110 MFI
- MFI at 0.16 nM [1]: 148 MFI
- MFI at 0.8 nM [1]: 252 MFI
- MFI at 4 nM [1]: 498 MFI
- MFI at 20 nM [1]: 807 MFI
- MFI at 100 nM [1]: 967 MFI
- Emax of OD450 nm binding value [2]: 0.05 OD450 and 0.07 OD450
- Emax of OD450 nm binding value [3]: 0.05 OD450 and 0.04 OD450
- MFI [4]: 795
- MFI [5]: 882
- MFI [6]: 518
- MFI [7]: 1010
- MFI [8]: 256
- MFI [9]: 12600 MFI
- MFI [10]: 155
- MFI [11]: 13400 MFI
- MFI [12]: 121
- MFI [13]: 7770 MFI
- MFI [14]: 13200 MFI
- MFI [15]: 112
- MFI [16]: 2660 MFI
- MFI [17]: 924 MFI
- MFI [18]: 452 MFI
- MFI [19]: 310 MFI
- Emax of OD450 nm binding value [20]: 0.14 OD450 nm
- Emax of OD450 nm binding value [21]: 0.06 OD450 nm
B1: BI3 (antibody, human IgG1, kappa, V domains shown)
VH: QVQLVQSGAEVKKPGASVKVSCKASGYTFTSYYVHWVRQAPGQGLEWMVIINPGGGTTSYAQKFLGRVTMTRDTSTNTVYMELKSLRSEDTAVYYCARGEAVTGNYFYYGMDVWGQGTTVTVSS
VL: DIQMTQSPSAMSASVGDRVTITCRASQGISNYLVWFQQKPGKAPKRLIYAVSSLYSGVPSRFSGSGSGTEFTLTISSLQPEDFATYYCLQHDSYPYTFGQGTKLEIKR

- MFI [22]: 707 MFI
- MFI [23]: 855 MFI
- MFI [24]: 619 MFI
- MFI [25]: 1140 MFI
- MFI [26]: 523 MFI
- MFI [27]: 278 MFI
- MFI [28]: 161 MFI
- MFI [29]: 113 MFI
- Emax of OD450 nm binding value [2]: 1.16 OD450
- Emax of OD450 nm binding value [3]: 0.06 OD450
B2: mab010 scFv-hFc (Fc fusion, not shown: small tags and cut ends; a dimerising Fc or GST)
scFv (part 1 of 2): DIQMTQSPASLSVSVGETVTITCRASENINSNLAWYQQKQGKSPQLLVYAATNLADGVPSRFSGSGSGTQFSLKISGLQSEDFGSYYCQHFWGLPWTFGGGTKLEIR
scFv (part 2 of 2): QVQLQQSGAELARPGASMKLSCKASGYTFTSYGISWVKQITGQGLEWIGEIFPRSGNTYDNENFRGKATLTADKSSSTAYLEVRSLTSEDSAVYFCARTTVFAPYYFDYWGQGTTLTVSS

- MFI [22]: 789 MFI
- MFI [23]: 1280 MFI
- MFI [24]: 732 MFI
- MFI [25]: 976 MFI
- MFI [26]: 566 MFI
- MFI [27]: 351 MFI
- MFI [28]: 197 MFI
- MFI [29]: 182 MFI
- MFI [30]: 7470 MFI
- MFI [31]: 8420 MFI
- MFI [32]: 5570 MFI
- MFI [33]: 10600 MFI
- MFI [34]: 1820 MFI
- MFI [35]: 566 MFI
- MFI [36]: 243 MFI
- MFI [37]: 163 MFI
B3: mab003 scFv-hFc (Fc fusion, part only; not given: VL-VH linker and human IgG1 Fc, not shown: another chain or arm of the molecule; a dimerising Fc or GST; small tags and cut ends)
scFv (part 1 of 2): DVQITQSPSYLAASPGETITINCRASKSISKYLAWYQEKPGKTNKLLIYSGSTLHSGIPSRFSGSGSGTDFTLTISSLEPEDFAIYYCQQHNEYPLTFGGGTKLELK
scFv (part 2 of 2): QVQLQQSGTELMKPGASVKLSCKATGYTFTGNWIEWVKQRPGHGLEWIGEILPGTGSTQYNEKFKGKATFTADPSSNTAYMQLSSLTTEDSAIYYCARWGSTVVAYDYWGQGTTLTVSS
